The values that follow are results of earlier work, collected in PMC12571840.

One data set addresses CRHR2 (Homo sapiens) (UniProt Q13324).
A further data set has as its target CRHR1 (Homo sapiens) (UniProt P34998).
Sequence of UniProt P34998 (P34998 24-415): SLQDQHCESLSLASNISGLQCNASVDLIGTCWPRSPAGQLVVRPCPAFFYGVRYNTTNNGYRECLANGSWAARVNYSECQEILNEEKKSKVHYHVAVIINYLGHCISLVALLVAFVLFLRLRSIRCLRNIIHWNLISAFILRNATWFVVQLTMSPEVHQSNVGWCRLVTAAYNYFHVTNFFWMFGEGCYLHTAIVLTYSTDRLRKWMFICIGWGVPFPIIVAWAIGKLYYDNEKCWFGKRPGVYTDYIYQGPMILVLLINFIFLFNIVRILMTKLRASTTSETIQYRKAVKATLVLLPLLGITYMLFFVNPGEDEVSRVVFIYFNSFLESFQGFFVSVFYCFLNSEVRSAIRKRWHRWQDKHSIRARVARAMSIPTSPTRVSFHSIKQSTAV

Sequence of UniProt Q13324 (Q13324 20-411): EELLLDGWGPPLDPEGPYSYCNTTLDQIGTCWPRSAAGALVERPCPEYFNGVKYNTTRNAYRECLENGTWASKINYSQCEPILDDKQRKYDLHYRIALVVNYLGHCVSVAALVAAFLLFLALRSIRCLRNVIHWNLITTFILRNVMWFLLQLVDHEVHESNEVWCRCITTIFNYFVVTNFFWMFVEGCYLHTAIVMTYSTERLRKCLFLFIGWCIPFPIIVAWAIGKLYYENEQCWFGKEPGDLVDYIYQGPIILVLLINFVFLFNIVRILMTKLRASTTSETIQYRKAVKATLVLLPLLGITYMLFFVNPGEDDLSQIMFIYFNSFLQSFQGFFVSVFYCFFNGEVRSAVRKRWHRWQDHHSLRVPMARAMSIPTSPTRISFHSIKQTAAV

Turning to CRH (from UniProt P06850), the inhibition constant (Ki) (in general, the dissociation constant of the complex between target and ligand, obtained from inhibition or displacement) in the data set with CRHR2 (Homo sapiens) was 13 nM; in the data set with CRHR1 (Homo sapiens), 0.95 nM.
